Assay results reported in the supplement of paper PMC12783771.
± gives the standard deviation of the averaged measurements.

B1: library; numbered along this chain (parent)
chain: MNIQIGELAKRTACPVVTIRFYEQEGLLPPPGRSRGNFRLYGEEHVERLQFIRHCRSLDMPLSDVRTLLSYRKRPDQDCGEVNMLLDEHIRQVESRIGALLELKHHLVELREACSGARPAQSCGILQGLSDCVCDTRGTTAHPSD

Experiments:
[1] = variants of: B1; experiment: sfGFP reporter fluorescence (15 h) (µM FITC); higher = higher leak; conditions: library round: Round 0; ligand: none
Summary of the method: (§1)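 Readout was endpoint sfGFP fluorescence, converted to µM FITC through standard curves. Reactions were 1 μL of BL21 Star (DE3) PANOx-SP extract with pPbrR-sfGFP reporter, 30 μg/mL GamS and linear PbrR templates normalized to 5 nM, containing 1 µM lead chloride, 30 µM zinc acetate or no metal. Incubation lasted 15 hr at 30 °C, with up to three biological replicates.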

[2] = variants of: B1; experiment: sfGFP reporter fluorescence (15 h) (µM FITC); higher = stronger transcriptional activation; conditions: library round: Round 0
Summary of the method: as §1

Variant | sfGFP reporter fluorescence [1] | sfGFP reporter fluorescence ([2]; ligand: 1 µM Pb) | sfGFP reporter fluorescence ([2]; ligand: 30 µM Zn)
MNIQIGELAKRTACPVVTIRFYEQEGLLPPPGRSRGNFRLYGEAHVERLQFIRHCRSLDMPLSDVRTLLSYRKRPDQDCGEVNMLLDEHIRQVESRIGALLELKHHLVELREACSGARPAQSCGILQGLSDCVCDTRGTTAHPSD | 0.0612 ± 0.0015 | 0.0746 ± 0.0013 | 0.495 ± 0.044
MNIQIGELAKRTACPVVTIRFYEQEGLLPPPGRSRGNFRLYGEEAVERLQFIRHCRSLDMPLSDVRTLLSYRKRPDQDCGEVNMLLDEHIRQVESRIGALLELKHHLVELREACSGARPAQSCGILQGLSDCVCDTRGTTAHPSD | 0.0599 ± 0.0018 | 0.07275 ± 0.00026 | 0.687 ± 0.088
MNIQIGELAKRTACPVVTIRFYEQEGLLPPPGRSRGNFRLYGEEHKERLQFIRHCRSLDMPLSDVRTLLSYRKRPDQDCGEVNMLLDEHIRQVESRIGALLELKHHLVELREACSGARPAQSCGILQGLSDCVCDTRGTTAHPSD | 0.0599 ± 0.00078 | 0.0922 ± 0.0023 | 0.908 ± 0.097
MNIQIGELAKRTACPVVTIRFYEQEGLLPPPGRSRGNFRLYGEEHIERLQFIRHCRSLDMPLSDVRTLLSYRKRPDQDCGEVNMLLDEHIRQVESRIGALLELKHHLVELREACSGARPAQSCGILQGLSDCVCDTRGTTAHPSD | 0.0548 ± 0.006 | 0.0711 ± 0.0062 | 0.831 ± 0.17
MNIQIGELAKRTACPVVTIRFYEQEGLLPPPGRSRGNFRLYGEEHCERLQFIRHCRSLDMPLSDVRTLLSYRKRPDQDCGEVNMLLDEHIRQVESRIGALLELKHHLVELREACSGARPAQSCGILQGLSDCVCDTRGTTAHPSD | 0.0531 ± 0.0026 | 0.0781 ± 0.0021 | 0.574 ± 0.01
MNIQIGELAKRTACPVVTIRFYEQEGLLPPPGRSRGNFRLYGEEHLERLQFIRHCRSLDMPLSDVRTLLSYRKRPDQDCGEVNMLLDEHIRQVESRIGALLELKHHLVELREACSGARPAQSCGILQGLSDCVCDTRGTTAHPSD | 0.0542 ± 0.0047 | 0.0847 ± 0.015 | 0.811 ± 0.057
MNIQIGELAKRTACPVVTIRFYEQEGLLPPPGRSRGNFRLYGEEHEERLQFIRHCRSLDMPLSDVRTLLSYRKRPDQDCGEVNMLLDEHIRQVESRIGALLELKHHLVELREACSGARPAQSCGILQGLSDCVCDTRGTTAHPSD | 0.0579 | 0.0806 ± 0.0015 | 0.724 ± 0.053
MNIQIGELAKRTACPVVTIRFYEQEGLLPPPGRSRGNFRLYGEEHDERLQFIRHCRSLDMPLSDVRTLLSYRKRPDQDCGEVNMLLDEHIRQVESRIGALLELKHHLVELREACSGARPAQSCGILQGLSDCVCDTRGTTAHPSD | 0.0581 ± 0.0034 | 0.0612 ± 0.0015 | 0.0735 ± 0.0013
MNIQIGELAKRTACPVVTIRFYEQEGLLPPPGRSRGNFRLYGEEHGERLQFIRHCRSLDMPLSDVRTLLSYRKRPDQDCGEVNMLLDEHIRQVESRIGALLELKHHLVELREACSGARPAQSCGILQGLSDCVCDTRGTTAHPSD | 0.05498 ± 0.00052 | 0.059 ± 0.0021 | 0.106 ± 0.013
MNIQIGELAKRTACPVVTIRFYEQEGLLPPPGRSRGNFRLYGEEHAERLQFIRHCRSLDMPLSDVRTLLSYRKRPDQDCGEVNMLLDEHIRQVESRIGALLELKHHLVELREACSGARPAQSCGILQGLSDCVCDTRGTTAHPSD | 0.0619 ± 0.0031 | 0.0757 ± 0.0023 | 0.682 ± 0.097
MNIQIGELAKRTACPVVTIRFYEQEGLLPPPGRSRGNFRLYGEEHHERLQFIRHCRSLDMPLSDVRTLLSYRKRPDQDCGEVNMLLDEHIRQVESRIGALLELKHHLVELREACSGARPAQSCGILQGLSDCVCDTRGTTAHPSD | 0.0557 ± 0.0015 | 0.0738 ± 0.00078 | 0.345 ± 0.039
MNIQIGELAKRTACPVVTIRFYEQEGLLPPPGRSRGNFRLYGEEHFERLQFIRHCRSLDMPLSDVRTLLSYRKRPDQDCGEVNMLLDEHIRQVESRIGALLELKHHLVELREACSGARPAQSCGILQGLSDCVCDTRGTTAHPSD | 0.05626 ± 0.00026 | 0.0814 ± 0.0015 | 0.66 ± 0.074
MNIQIGELAKRTACPVVTIRFYEQEGLLPPPGRSRGNFRLYGWEHVERLQFIRHCRSLDMPLSDVRTLLSYRKRPDQDCGEVNMLLDEHIRQVESRIGALLELKHHLVELREACSGARPAQSCGILQGLSDCVCDTRGTTAHPSD | 0.061 ± 0.0013 | 0.0995 ± 0.021 | 1.36 ± 0.2
MNIQIGELAKRTACPVVTIRFYEQEGLLPPPGRSRGNFRLYGYEHVERLQFIRHCRSLDMPLSDVRTLLSYRKRPDQDCGEVNMLLDEHIRQVESRIGALLELKHHLVELREACSGARPAQSCGILQGLSDCVCDTRGTTAHPSD | 0.0599 ± 0.00078 | 0.0924 ± 0.017 | 1.2 ± 0.058
